According to the DeepSol protein solubility set:

Assay: soluble on expression in E. coli; label from the status in PepcDB or PDB records

Which “soluble on expression in E. coli” value does the source give for “MNATINDDDIDDVKKALDHATQAAHKAAAELTAKLRSDFVEYGNGGTAGQVLIHIYGPGLIYGFSAFPVQIRLEIPNQPVPFNKVHITEVTAYVIDENNRTYWTRVWNSSTFRQGGYIADTLDLVTVMKAPDPLVYQIRDAIVTGQISRELYDKIWNTSTTHFEIRVIVKGYQEAWKTDSSVSNQSSCPSDGHWYEDACWVHDKDIDFTLKAETTTAWGHVTGTNDVATIDGGMLGSLPIKFLQSLDLSGKWVLYQNKYAGALSDFIIITAASPVHVLNSTAMYKFLITPNPGYFQPANPKISDEYRFVTLRVIEGGRMELADTTTGHIGDLTEPTFFGLTAHYTDAPGTLDYHALGLVYAYVERDDGVKIPIWLAAEPMISVLSNTYTVMKDQDVKNLIDLYKKKDREKINATTKAMINSLQEKIDEAEQLLAKAKGMNNENAIEYAQGAIDEYKAAINDLQKAAQQDDYQMFLNYLNAAKKHEMAGDYYVNAARKALNGDLEQAKIDAEKAKEYSNLAKEYEPG” here?
The value was “soluble”.

Which “soluble on expression in E. coli” value does the source give for “MGSDKIHHHHHHMDMTTYPIYLVGGSKGGVGKSFVALALADYLLRQNIRAALVETDTSNPDVMKAVQDEMRCIAYNLDDADGWIGLVNFCDEQRDAAIVVNTAARSQTGVEQFGATLAGALGELQRRLVVLWVINRQRDSLELLHAFSKTFPDAVTNVVRNGYFGPAEKFTLYQGSQLRRSIEARGHSLDFPDLADRVADELRSQRMSIRKAAETMHIGERVELMRWRSLCDAMFARVTVDG” here?
The value was “not soluble”.

For “SSEAYFPVESGALGPEENFLSLDDILMSQEKLPVRVETPMPRLGAFFLERGAGSEPDHPLPQGTKLELPLWLAKGLFDHKRRILSVELPKMYQEGWRTVFSADANVVDLHKMGPHFYGFGSQLLHFDSPENADISQSLLKTFIGRFRRIMDSSQNSYNEDTSALVARLDETERGLFQIGQRSLNDFQSWEKGQASQITASSLVQNYKKRKFTNMED”, which “soluble on expression in E. coli” value is on record?
The value was “soluble”.

For “DTTQNLMIEGDNLEVLKLLQKSYAGKIKLIYIDPPYNTGKDFVYPDDFKDNIRNYLELTGQVEGGRKISSNTEASGRFHTDWLNMMYPRLKIARQLLSPTGVIAVHIDEHELEALVIVLRDLFGEENELGVTIWDKRNPKGDSRGIAYQHESLVLFARDAEELFARSPVRRAKRNAERMLNAASRFVTECGSIAEARAAYRSWVKSQSTLSGGESMYDKLSETGRVYRLVSMAWPNKKRAPADYFVPLKHPITGKDCPIPERGWRNPPATMKKLLEDGLIEFGPDEIMQPQRIYFLDENMYENVPSIVPFGGSDDELLKELSVPFEQPKPVDFSVQVISWCSSKDEIVMDFFAGSGTTGHAVMAQNAADGGNRRYILVQLPEPLDPENKDQKVAAEFCDKLGKPRTIAELTKERLRRAAKKIKEENPLFAGDLGFRVFKLDSSNIRA”, which “soluble on expression in E. coli” value is on record?
Its value is “not soluble”.

Which “soluble on expression in E. coli” value does the source give for “MRILFVGPPLYGLLYPVLSLAQAFRVNGHEVLIASGGKFAQKAAEAGLVVFDAAPGFDSEAGYRRQEALRKENNIGTKMGNFSFFSEEMTDPLVAFAGQWRPDLIVYPPLGVVGPLIAAKYDIPVVMQTVGFGHTPWHIKGVTKSLSNAYRRHGVSAPPRDLAWIDVTPPSMSILQNDGEPVISMQYVPYNGGAVWEEWWERTPDRKRLLVSLGTVKPMVDGLDLISWVMDSAGEVDAEIILHLPANARSDLRSLPPNVRLVDWLPMGVFLNGADGFIHHGGAGNTLTALHAGIPQIVFGQGADRPVNARAVVERGCGIIPGKSGLTSSMINTFLGNRALREASQEVAAEMAAQPCPTEVAKKLIAMLQHGLEHHHHHH” here?
The value was “not soluble”.

Which “soluble on expression in E. coli” value does the source give for “IAQQTEETVVEVETVTGFGANDAILDIRSIDEQEDKPLKVEGVEVVSLPFYKLSTKFGDLDQSKTWLLWCERGVMSRLQALYLREQGFSNVKVYR” here?
The value was “not soluble”.

For “MSLESPQTQSEISIHQLVVGKPANDGNIPAQCELLRCSLQEGMDILLWRGHFARPETLQLHDDLGRINFSCILEGTSRFAIQGLRRHTDWELARNRHYITHTPDCRGSASYCGRFESITLSFSPETLALWVPDISAVIKNKIDSHCCCQQQRCNAETHLTAQALRHALMRMHGGFSHEQKPSTLWLQGQSLVMLSLVLDEHREDASCLSCHFNPMERQKLLRAKDLLLADLTQAPGVAELARESGLSVLKIKRGFRVLFNNSVYGLFQAERMQEARRRLANGNTSVMTVAADLGYANASHFSAAFQKQFGVTPSTFKRGEGHHHHHH”, which “soluble on expression in E. coli” value is on record?
Its value is “not soluble”.

With “MTEYERPQTPGVVTHDAVVLAGGAARRLGGADKPGVRVGGRALLDRVLAACAGAATTVVVADPRATARPVVWAREEPPGAGPVAALDAGLRRTTAAYVVVLSADLPFLDEETVRRLLSTLQASGTEGVLLTDPGGRDQPLVAAYRSAALRRELAELAAGHGTLAGLPLRVLVAALDLTRVSDPVASFDCDTWDDIAAARSRIREHGNVLDEWISAVKDELGIDLAVDTGILLDLARDAAHGVARPAAPLTTFLVGYAAAQAGGGPEAVAEAARKAAALALRWADEAAAEAGPDAGLEHHHHHH” as the sequence, how does the “soluble on expression in E. coli” value read?
Its value is “not soluble”.

For “MKIWSSEHVFGHPWDTVIKAAMRKYPNPMNPCVVGVDVLERSVDGCGRLHSLRLLSTEWGLPGLVRAILGANRTLTYIKERSVVDPAARKMELCSTNITLTNLVSVNERLVYTPHPENPEKTVLTQEAIITVKGISLGSYLESLMATTISSNAKKGWAAIEWIIEHSESAIS”, which “soluble on expression in E. coli” value is on record?
Its value is “not soluble”.

Which “soluble on expression in E. coli” value does the source give for “IVGLRVGAAAEFALSNDGFYLAPGLAYTMRGAKMESLSETTTRLHYLQIPVNAGMRFSFADNMAISLEAGPYFAYGVAGTIKTKVAGVTASVDAFGDNGYNRFDLGLGLSAALSYDRYYVQIGYEHGLLNMLKDAPDKTSLRNHDFFVGLGVRF” here?
Its value is “not soluble”.

With “SMARENGESSSSWKKQAEDIKKIFEFKETLGTGAFSEVVLAEEKATGKLFAVKCIPKKALKGKESSIENEIAVLRKIKHENIVALEDIYESPNHLYLVMQLVSGGELFDRIVEKGFYTEKDASTLIRQVLDAVYYLHRMGIVHRDLKPENLLYYSQDEESKIMISDFGLSKMEGKGDVMSTACGTPGYVAPEVLAQKPYSKAVDCWSIGVIAYILLCGYPPFYDENDSKLFEQILKAEYEFDSPYWDDISDSAKDFIRNLMEKDPNKRYTCEQAARHPWIAGDTALNKNIHESVSAQIRKNFAKSKWRQAFNATAVVRHMRKLHLGSSLDSSNA” as the sequence, how does the “soluble on expression in E. coli” value read?
The value was “soluble”.

For “MSTSEDKPEIISRVVHQEGDVEIVDRSQKDKDEEKEEGKGGFLDKVKDFIHDIGEKLEGTIGFGKPTADVSAIHIPKINLERADIVVDVLVKNPNPVPIPLIDVNYLVESDGRKLVSGLIPDAGTLKAHGEETVKIPLTLIYDDIKSTYNDINPGMIIPYRIKVDLIVDVPVLGRLTLPLEKCGEIPIPKKPDVDIEKIKFQKFSLEETVAILHVRLQNMNDFDLGLNDLDCEVWLCDVSIGKAEIADSIKLDKNGSGLINVPMTFRPKDFGSALWDMIRGKGTGYTIKGNIDVDTPFGAMKLPIIKEGGETRLKKEDDDDDDEE”, which “soluble on expression in E. coli” value is on record?
The value was “soluble”.

With “MGSDKIHHHHHHVSVPTQHHLSAERLDQSAQFARITSTVEAPVLSLWLPDPQQAVPSACGRAVAGHDGPSEGAGGQRQGGESGQLCRAHLRLQPGPVLAGEAEAPPTRPQFLLVVATHLQRSFTREVKLHGRCPRRVRRPFHLITQIDNQVRGCRPDLTQHRREREGVPVHVADDCHSHPSSLAQTGAAPPANMRPMSILPDWRIRELAQAGMIEPFEDRLIRTAENGHVISYGLSSFGYDLRCADEWKVFTNVHGALVDPKNFDERSFVDLQANAIIIPPNSFVLARSLEYLRIPENVMVVALGKSTYARCGIVANVTPLEPGWEGHVTLEFSNTTPLPAKMYAFEGCVQLLFFEGERPAVTYRDRGGKYQKQRGVTLPRL” as the sequence, how does the “soluble on expression in E. coli” value read?
Its value is “not soluble”.

Which “soluble on expression in E. coli” value does the source give for “MGSDKIHHHHHHMTIRGKAYIAGIYEHPTRHAPDKSIAQLHAEVAKGALDDAGLTKADIDGYFCAGDAPGGVMAMVDYLGLKVRHFDSTDTGGCSYLVHLGHAAEAIAAGRCSVALITLAGKPRTGALPPRPVGAEGDFELAYGATTHNVYAMCAARHMHQYGTTSEQLAWIKVAASHHAQYNEHAMLRDVVTVEDVLNSPLIADPLHRMDCCVVTDGGGALIVTTEEIARSLKKPLVRMIGAGEAIKGPRGGHNLDLTYSAGVWSAPPAFEMAGVTPKDIKYASIYDSFTITVLMQLEDLGFCEKGQGGKFVADGNLISGVGKLPFNTDGGGLCSNHPVNRGGMTKLLEAVRQLRGEAHPKVQVPNCDLAIAHGTGGMLGIRHAASTCILERV” here?
Its value is “not soluble”.

With “MSHSIEQLSINTIRTLSIDAIEKANSGHPGMPMGAAPMAYTLWTQFMKHNPNNPTWFNRDRFVLSAGHGSMLLYSLLHLSGYDVTMDDLKNFRQWGSKTPGHPEYGHTAGVDATTGPLGQGIATAVGMAMAERHLAAKYNRDAYNIVDHYTYAICGDGDLMEGVSAEASSLAAHLQLGRLVVLYDSNDISLDGDLNRSFSESVEDRYKAYGWQVIRVEDGNDIEAIAKAIEEAKADEKRPTLIEVRTTIGFGSPNKSGKSASHGSPLGVEETKLTKEAYAWTAEQDFHVAEEVYENFRKTVQDVGETAQAEWNTMLGEYAQAYPELANELQAAMNGLLPEGWEQNLPTYELGSKAATRNSSGAVINAIAESVPSFFGGSADLAGSNKTYMNNEKDFTRDDYSGKNIWYGVREFAMGAAMNGIALHGGLKTYGGTFFVFSDYLRPAIRLAALMQLPVTYVFTHDSIAVGEDGPTHEPIEQLAALRAMPNVSVIRPADGNESVAAWRLALESTNKPTALVLTRQDLPTLEGAKDDTYEKVAKGAYVVSASKKETADVILLATGSEVSLAVEAQKALAVDGVDASVVSMPSMDRFEAQTAEYKESVLPKAVTKRFAIEMGATFGWHRYVGLEGDVLGIDTFGASAPGEKIMEEYGFTVENVVRKVKEML” as the sequence, how does the “soluble on expression in E. coli” value read?
The value was “not soluble”.

Which “soluble on expression in E. coli” value does the source give for “MLITKNQAEKWFDNSLGKQFNPDLFYGFQCYDYANMFFMLATGERLQGLYAYNIPFDNKAKIEKYGQIIKNYDSFLPQKLDIVVFPSKYGGGAGHVEIVESANLNTFTSFGQNWNGKGWTNGVAQPGWGPETVTRHVHYYDNPMYFIRLNFPNNLSVGNKAKGIIKQATTKKEAVIKPKKIMLVAGHGYNDPGAVGNGTNERDFIRKYITPNIAKYLRHAGHEVALYGGSSQSQDMYQDTAYGVNVGNKKDYGLYWVKSQGYDIVLEIHLDAAGESASGGHVIISSQFNADTIDKSIQDVIKNNLGQIRGVTPRNDLLNVNVSAEININYRLSELGFITNKNDMDWIKKNYDLYSKLIAGAIHGKPIGGVVASEVKAPVKNEKNPPVPAGYTLDKNNVPYKKEQGNYTVANVKGNNVRDGYSTNSRITGVLPNNTTITYDGAYCINGYRWITYIANSGQRRYIATGEVDIAGNRISSFGKFSAV” here?
The value was “soluble”.

For “MGSDKIHHHHHHMSSIFSLEGIKALGPDELREIQRGGLPVVIHFGDAGDDFLAYVSDHATEWLGTDAIRTVDARRFMEDKEWKAPMLTSEVLPKTIIVDPARWGDSFADKVAALDMTAFYSSNPVLLDYNDAFEVVFLFSTFYHHTMVSVTDFCNLRCRGCSFHGDDSRYDFAASRGKTERQELKEEDYYLFLDQRKPGDDLLFCGTGELFVSKKAMPYIREAIRRGLHVRILTNGMLVDDKVARELVELGVGAVLFSIDGHTKEIVESIRLGADYDRILANLRNLMRVRDEAGSGMIIGVQSGWFDEVKTRKDEILEFWKEFGIDTFSFFAEQVGWFQCIPMHEDKVMPVKTHACFNSLITPVLMTNGYVAPCTGNYQAEWSSLSSSWMKHISEAPFDEIIRYYRKMRTDPASPYRQRCAMCIGRLSTYVNSEYVSAYAEGYRFSERKSDKEAAFVKFSPQDEKTGFTLKKLWNRLLRR”, which “soluble on expression in E. coli” value is on record?
Its value is “not soluble”.

Which “soluble on expression in E. coli” value does the source give for “MFFKKNLTTAAICAALSVAAFSAMATDSTDTELTIIGEYTPGACTPVVTGGGIVDYGKHHNSALNPTGKSNKLVQLGRKNSTLNITCTAPTLIAVTSKDNRQSTIVALNDTSYIEKAYDTLVDMKGTKNAFGLGSAPNGQKIGAASIGIDRSNGGIHAADDTGEIPVDLIQTDHWSAATPTWKASSNGAFCSLTSCSAIERGYSVAKTGELTPVAITAVTFPLLIDAAVNDNTILGSDETIKLDGNVTISVQYL” here?
Its value is “not soluble”.
